This test addresses CSA (human, untagged after removal of GST) (human, UniProt Q13216 1-396). Briefly: pull-down.

One molecule from paper PMC11602130 (Nucleic Acids Research, 2024) can be followed below.

CSA (human, untagged after removal of GST), sequence (Q13216 whole entry): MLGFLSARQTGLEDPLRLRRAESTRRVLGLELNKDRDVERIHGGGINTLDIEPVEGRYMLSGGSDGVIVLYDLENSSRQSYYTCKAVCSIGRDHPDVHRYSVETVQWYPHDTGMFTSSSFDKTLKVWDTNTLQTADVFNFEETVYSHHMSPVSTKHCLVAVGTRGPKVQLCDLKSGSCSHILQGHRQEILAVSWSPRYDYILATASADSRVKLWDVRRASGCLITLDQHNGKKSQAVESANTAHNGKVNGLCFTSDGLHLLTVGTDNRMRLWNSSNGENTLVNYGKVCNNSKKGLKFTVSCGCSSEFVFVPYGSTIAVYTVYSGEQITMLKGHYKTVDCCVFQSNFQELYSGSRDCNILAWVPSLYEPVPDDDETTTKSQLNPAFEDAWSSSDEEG

B1: His-STK19 (human STK19S, 254aa isoform) (natural protein, UniProt P49842 1-254, looked up)
chain: MSWKRHHLIPETFGVKRRRKRGPVESDPLRGEPGSARAAVSELMQLFPRGLFEDALPPIVLRSQVYSLVPDRTVADRQLKELQEQGEIRIVQLGFDLDAHGIIFTEDYRTRVLKACDGRPYAGAVQKFLASVLPACGDLSFQQDQMTQTFGFRDSEITHLVNAGVLTVRDAGSWWLAVPGAGRFIKYFVKGRQAVLSMVRKAKYRELLLSELLGRRAPVVVRLGLTYHVHDLIGAQLVDCISTTSGTLLRLPET
For B1, the binding result was “binds”.
